Results taken from the supplement of paper PMC7877785.
± gives the uncertainty stated by the source.

Assay: self-splicing fitness, log relative to wild type (ln ratio); higher = more splicing; Tetrahymena group I intron in knt gene, E. coli kanamycin selection, DiMSum; sequences stand for … in CUCUCU…GGAGGGAAAAGUUAUCAGGCAUGCACCUGGUAGCUAGUCUUUAAACCAAUAGAUUGCAUCGGUUUAAAAGGCAAGACCGUCAAAUUGCGGGAAAGGGGUCAACAGCCGUUCAGUACCAAGUCUCAGGGGAAACUUUGAGAUGGCCUUGCAAAGGGUAUGGUAAUAAGCUGACGGACAUGGUCCUAACCACGCAGCCAAGUCCUAAGUCAACAGAUCUUCUGUUGAUAUGGAUGCAGUUCACAGACUAAAUGUCGGUCGGGGAAGAUGUAUUCUUCUCAUAAGAUAUAGUCGGACCUCUCCUUAAUGGGAGCUAGCGGAUGAAGUGAUGCAACACUGGAGCCGCUGGGAACUAAUUUGUAUGCGAAAGUAUAUUGAUUAGUUUUGGAGUACUCGUGGUCG
Procedure, shortened: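 A randomised library covering all eight P1ex-region intron nucleotides was built with the intron in the knt kanamycin-resistance gene on pET-22b(+) and held in E. coli BL21(DE3). Cells were grown overnight at 37°C or 30°C on LB agar, with or without 25 μg/mL kanamycin, plus 100 μg/mL carbenicillin, 50 μM IPTG and 0.2% rhamnose, and pooled colonies were amplicon-sequenced on an Illumina HiSeq 2500. DiMSum fitness is the error-weighted combination of wild-type-normalised replicate fold changes, kanamycin versus none.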

| Sequence | self-splicing fitness (ln) (30 °C) | self-splicing fitness (ln) (37 °C) |
| --- | --- | --- |
| UCCAAGCAAUAUUACGGUCG | -2.37 ± 0.097 | -0.886 ± 0.099 |
| UCCAAGCAAUAUUACGUAAC | -3.57 ± 0.17 | -1.41 ± 0.15 |
| UCCAAGCAAUAUUACGUACA | -0.123 ± 0.1 | -0.835 ± 0.12 |
| UCCAAGCAAUAUUACGUUAA | -2.37 ± 0.12 | -0.463 ± 0.1 |
| UCCCAGCAAUAUUACGACUC | -3.89 ± 0.25 | -1.91 ± 0.24 |
| UCCCAGCAAUAUUACGAGCC | -2.16 ± 0.28 | -1.96 ± 0.31 |
| UCCCAGCAAUAUUACGAUAA | -2.32 ± 0.12 | -1.85 ± 0.14 |
| UCCCAGCAAUAUUACGAUUU | -3.49 ± 0.11 | -1.52 ± 0.097 |
| UCCCAGCAAUAUUACGCAUA | -1.47 ± 0.16 | -1.27 ± 0.15 |
| UCCCAGCAAUAUUACGCCUU | -3.44 ± 0.2 | -1.28 ± 0.15 |
| UCCCAGCAAUAUUACGCGGA | -2.72 ± 0.17 | -1.12 ± 0.12 |
| UCCCAGCAAUAUUACGCUAA | -1.75 ± 0.11 | -0.958 ± 0.091 |
| UCCCAGCAAUAUUACGCUGC | -3.59 ± 0.24 | -2.75 ± 0.34 |
| UCCCAGCAAUAUUACGGACC | -3.42 ± 0.27 | 0.0123 ± 0.17 |
| UCCCAGCAAUAUUACGGAUG | -3.49 ± 0.2 | -1.31 ± 0.15 |
| UCCCAGCAAUAUUACGGAUU | -2.66 ± 0.092 | -0.582 ± 0.08 |
| UCCCAGCAAUAUUACGGCGC | -1.67 ± 0.091 | -0.401 ± 0.14 |
| UCCCAGCAAUAUUACGGCUG |  | -1.42 ± 0.48 |
| UCCCAGCAAUAUUACGGGAC | -2.69 ± 0.17 | -2.49 ± 0.3 |
| UCCCAGCAAUAUUACGUAAA | -0.605 ± 0.065 | 0.00983 ± 0.085 |
| UCCCAGCAAUAUUACGUACC |  | 0.327 ± 0.33 |
| UCCCAGCAAUAUUACGUAGA | -0.0439 ± 0.054 | 0.435 ± 0.073 |
| UCCCAGCAAUAUUACGUAGC | -2.68 ± 0.12 | -2.19 ± 0.16 |
| UCCCAGCAAUAUUACGUCAU | -4.04 ± 0.2 | -2.09 ± 0.18 |
| UCCCAGCAAUAUUACGUCCC | -3.08 ± 0.25 | -0.845 ± 0.26 |
| UCCCAGCAAUAUUACGUCGU | -1.69 ± 0.085 | -0.682 ± 0.11 |

| Sequence | self-splicing fitness (ln) (30 °C) | self-splicing fitness (ln) (37 °C) |
| --- | --- | --- |
| UCCCAGCAAUAUUACGUCUG | -3.05 ± 0.17 | -2.85 ± 0.31 |
| UCCCAGCAAUAUUACGUUCU | -3.47 ± 0.21 | -2.5 ± 0.22 |
| UCCCAGCAAUAUUACGUUGG | -3.37 ± 0.12 | -1.5 ± 0.13 |
| UCCCAGCAAUAUUACGUUGU | -4.06 ± 0.15 | -1.97 ± 0.11 |
| UCCCAGCAAUAUUACGUUUA | -2.21 ± 0.12 | -1.79 ± 0.13 |
| UCCGAGCAAUAUUACGAAAG | -3.3 ± 0.33 | -2.65 ± 0.32 |
| UCCGAGCAAUAUUACGAAUA | -2.95 ± 0.25 |  |
| UCCGAGCAAUAUUACGAAUU | -3.49 ± 0.28 | -2.19 ± 0.35 |
| UCCGAGCAAUAUUACGACAA | -2.23 ± 0.46 |  |
| UCCGAGCAAUAUUACGACUA | -2.51 ± 0.28 | -2.21 ± 0.27 |
| UCCGAGCAAUAUUACGACUG | -2.56 ± 0.34 | -1.76 ± 0.37 |
| UCCGAGCAAUAUUACGAGGU | -3.89 ± 0.34 |  |
| UCCGAGCAAUAUUACGAGUU | -2.64 ± 0.2 |  |
| UCCGAGCAAUAUUACGAUAC | -4.73 ± 0.46 | -2.96 ± 0.35 |
| UCCGAGCAAUAUUACGAUUG | -3.7 ± 0.28 | -1.77 ± 0.28 |
| UCCGAGCAAUAUUACGCCUA | -2.13 ± 0.2 | -2.6 ± 0.36 |
| UCCGAGCAAUAUUACGCCUG | -2.12 ± 0.36 | -1.84 ± 0.31 |
| UCCGAGCAAUAUUACGGAAU | -1.91 ± 0.14 | -1.77 ± 0.2 |
| UCCGAGCAAUAUUACGGACU | -3.56 ± 0.21 | -2.02 ± 0.14 |
| UCCGAGCAAUAUUACGGCGG | -2.11 ± 0.14 | -2.2 ± 0.15 |
| UCCGAGCAAUAUUACGGCUA | -0.436 ± 0.096 | -0.18 ± 0.1 |
| UCCGAGCAAUAUUACGGGCG | -3.47 ± 0.35 | -1.68 ± 0.36 |
| UCCGAGCAAUAUUACGGUAU | -1.95 ± 0.15 | -2.41 ± 0.23 |
| UCCGAGCAAUAUUACGGUUA | -0.525 ± 0.058 | -0.174 ± 0.063 |
| UCCGAGCAAUAUUACGUAUA | -3.79 ± 0.29 | -2.54 ± 0.24 |
| UCCGAGCAAUAUUACGUCGC | -3.15 ± 0.28 | -1.24 ± 0.3 |

| Sequence | self-splicing fitness (ln) (30 °C) | self-splicing fitness (ln) (37 °C) |
| --- | --- | --- |
| UCCGAGCAAUAUUACGUCUG | -3.5 ± 0.24 |  |
| UCCUAGCAAUAUUACGAACU | -2.54 ± 0.19 | -1.6 ± 0.23 |
| UCCUAGCAAUAUUACGACUA | -1.23 ± 0.38 | -2.73 ± 0.41 |
| UCCUAGCAAUAUUACGAGCU | -3.57 ± 0.37 | -1.99 ± 0.38 |
| UCCUAGCAAUAUUACGAGUG | -2.1 ± 0.1 | -0.96 ± 0.1 |
| UCCUAGCAAUAUUACGCACA | -2.29 ± 0.22 | -1.45 ± 0.21 |
| UCCUAGCAAUAUUACGCCAG | -3.13 ± 0.26 | -2.68 ± 0.26 |
| UCCUAGCAAUAUUACGCCAU | -2.5 ± 0.3 | -0.725 ± 0.35 |
| UCCUAGCAAUAUUACGCCCG |  | -2.38 ± 0.42 |
| UCCUAGCAAUAUUACGCCGG |  | -1.88 ± 0.3 |
| UCCUAGCAAUAUUACGCGCC | -2.63 ± 0.17 | -2.29 ± 0.24 |
| UCCUAGCAAUAUUACGCGGU | -2.34 ± 0.17 | -1.63 ± 0.18 |
| UCCUAGCAAUAUUACGCGUG | -4.1 ± 0.15 | -2.75 ± 0.12 |
| UCCUAGCAAUAUUACGGAUG | -4.25 ± 0.34 | -2.67 ± 0.2 |
| UCCUAGCAAUAUUACGGGAA | -1.84 ± 0.21 | -1.76 ± 0.14 |
| UCCUAGCAAUAUUACGGGAG | -2.27 ± 0.25 | -2.37 ± 0.35 |
| UCCUAGCAAUAUUACGGGCU | -2.12 ± 0.1 | -1.74 ± 0.13 |
| UCCUAGCAAUAUUACGGGUA | -0.468 ± 0.088 | -0.134 ± 0.12 |
| UCCUAGCAAUAUUACGGGUU | -2.26 ± 0.13 | -1.78 ± 0.15 |
| UCCUAGCAAUAUUACGGUCA | -0.978 ± 0.079 | -0.106 ± 0.089 |
| UCCUAGCAAUAUUACGGUGC | -2.74 ± 0.17 | -2.36 ± 0.18 |
| UCCUAGCAAUAUUACGUAAU | -2.99 ± 0.15 | -2.37 ± 0.18 |
| UCCUAGCAAUAUUACGUCCU | -3.56 ± 0.15 | -1.92 ± 0.14 |
| UCCUAGCAAUAUUACGUUAA | -3.69 ± 0.28 | -2.32 ± 0.26 |
| UCCUAGCAAUAUUACGUUAG | -3.49 ± 0.2 | -1.92 ± 0.23 |
| UCGAAGCAAUAUUACGAAGA | -2.08 ± 0.25 | -0.685 ± 0.19 |
